Source: patent US20150045291A1 (YEDA RESEARCH AND DEVELOPMENT, published 2015)

Tests used:
Assay in all cases: cell-based or functional assay
[1] = target: T1, HIV-1 HXB2 envelope protein (ENV), gp41 transmembrane subunit (HIV-1 HXB2, UniProt P04578 33-856)
[2] = target: T1, HIV-1 HXB2 envelope protein (ENV), gp41 …; remark: listed apart in the source
[3] = target: HIV-1 LAI ENV (CXCR4 tropic) (HIV-1 LAI, UniProt P03377 33-861)
[4] = target: HIV-1 AD8 ENV (CCR5 tropic) (HIV-1 AD8)

B1: N17 (peptide)
peptide: LLQLTVWGIKQLQARIL
With B1 the “IC50 (nM), antiviral activity in a fully infectious HIV-1 system” value (shortened to “IC50 (nM), antiviral activity”) [1] was over 4000 nM.

B2: N17mut (e, g) K (peptide)
peptide: ELQLTQWKIKQLLARILK
B2 was tested, and the “IC50 (nM), antiviral activity” value [1] was over 4000 nM.

B3: Sphing-N17mut (e, g) K (peptide)
peptide: ELQLTQWKIKQLLARILK
modifications: sphinganine on the N-terminus
B3 was tested, and the “IC50 (nM), antiviral activity” value [1] was 120 nM.

B4: N17mut (e, g) K-sphing (peptide)
peptide: ELQLTQWKIKQLLARILK
modifications: sphinganine on the side chain of the C-terminal Lys
With B4 the “IC50 (nM), antiviral activity” value [1] was 120 nM.

B5: Sphinganine-ShN17 (peptide)
peptide: LQARILAVERYLKDQQL
modifications: sphinganine on the N-terminus
In the case of B5, the “IC50 (nM), antiviral activity” value [1] is reported as 886 nM.

B6: DP19K (peptide)
peptide: YTSLIHSLIEESQNQQEKNK
B6 was tested, and the “IC50 (nM), antiviral activity” value [1] was 2210 nM.

B7: DP19K-sphinganine (peptide)
peptide: YTSLIHSLIEESQNQQEKNK
modifications: sphinganine on the side chain of the C-terminal Lys
With B7 the “IC50 (nM), antiviral activity” value [1] was 350 nM.

B8: Palmitic acid-N17 (peptide)
peptide: LLQLTVWGIKQLQARIL
modifications: palmitic acid (C16) on the N-terminus
For B8, the “IC50 (nM), antiviral activity” value [1] was over 4000 nM.

B9: N14 (peptide)
peptide: LLQLTVWGIKQLQA
With B9 the “IC50 (nM), antiviral activity” value [1] was over 4000 nM.

B10: Sphing-N14 (peptide)
peptide: LLQLTVWGIKQLQA
modifications: sphinganine on the N-terminus
With B10 the “IC50 (nM), antiviral activity” value [1] was 500 nM.

B11: Sphinganine-N17K (peptide)
peptide: LLQLTVWGIKQLQARILK
modifications: sphinganine on the N-terminus
B11 was tested, and the “inhibitory concentration at 50% infectivity (IC50)” value [2] was 116 nM and the “IC50 (nM), antiviral activity” value [1] was 118 nM.

B12: N17K-sphinganine (peptide)
peptide: LLQLTVWGIKQLQARILK
modifications: sphinganine on the side chain of the C-terminal Lys
For B12, the “IC50 value, viral infectivity” value [2] was 287 nM and the “IC50 (nM), antiviral activity” value [1] was 291 nM.

B13: Sphinganine-N17 (peptide)
peptide: LLQLTVWGIKQLQARIL
modifications: sphinganine (dihydrosphingosine) on the N-terminus
With B13 the “IC50, infection of TZM-bl cells by pseudotyped virus” value [3] was 312 nM, the “IC50, infection of TZM-bl cells by pseudotyped virus” value [4] was 403 nM and the “IC50 (nM), antiviral activity” value [1] was 121 nM.

B14: Cholesterol-N17 (peptide)
peptide: LLQLTVWGIKQLQARIL
modifications: cholesterol on the N-terminus
B14 was tested, and the “IC50 (nM), antiviral activity” value [1] was over 4000 nM.

B15: Tocopherol-N17 (peptide)
peptide: LLQLTVWGIKQLQARIL
modifications: tocopherol (alpha-tocopherol succinate) on the N-terminus
B15 was tested, and the “IC50 (nM), antiviral activity” value [1] was over 4000 nM.

B16: Sphingosine-N17 (peptide)
peptide: LLQLTVWGIKQLQARIL
modifications: sphingosine on the N-terminus
With B16 the “IC50 (nM), antiviral activity” value [1] was 208 nM.

B17: N17K (peptide)
peptide: LLQLTVWGIKQLQARILK
With B17 the “IC50 (nM), antiviral activity” value [1] was over 4000 nM.
